{"source": "patent US20160326532A1", "about": "(MAYO FOUNDATION FOR MEDICAL EDUCATION AND RESEARCH, published 2016)", "binders": {"B1": {"name": "WD repeat and SOCS box-containing protein 1 (WSB1), endogenous (enzyme)", "chain": "MASFPPRVNEKEIVRLRTIGELLAPAAPFDKKCGRENWTVAFAPDGSYFAWSQGHRTVKLVPWSQCLQNFLLHGTKNVTNSSSLRLPRQNSDGGQKNKPREHIIDCGDIVWSLAFGSSVPEKQSRCVNIEWHRFRFGQDQLLLATGLNNGRIKIWDVYTGKLLLNLVDHTEVVRDLTFAPDGSLILVSASRDKTLRVWDLKDDGNMMKVLRGHQNWVYSCAFSPDSSMLCSVGASKAVFLWNMDKYTMIRKLEGHHHDVVACDFSPDGALLATASYDTRVYIWDPHNGDILMEFGHLFPPPTPIFAGGANDRWVRSVSFSHDGLHVASLADDKMVRFWRIDEDYPVQVAPLSNGLCCAFSTDGSVLAAGTHDGSVYFWATPRQVPSLQHLCRMSIRRVMPTQEVQELPIPSKLLEFLSYRI", "notes": "also called WBS1"}, "B2": {"name": "Myc-tagged WSB1 (WT) (enzyme)", "chain": "MASFPPRVNEKEIVRLRTIGELLAPAAPFDKKCGRENWTVAFAPDGSYFAWSQGHRTVKLVPWSQCLQNFLLHGTKNVTNSSSLRLPRQNSDGGQKNKPREHIIDCGDIVWSLAFGSSVPEKQSRCVNIEWHRFRFGQDQLLLATGLNNGRIKIWDVYTGKLLLNLVDHTEVVRDLTFAPDGSLILVSASRDKTLRVWDLKDDGNMMKVLRGHQNWVYSCAFSPDSSMLCSVGASKAVFLWNMDKYTMIRKLEGHHHDVVACDFSPDGALLATASYDTRVYIWDPHNGDILMEFGHLFPPPTPIFAGGANDRWVRSVSFSHDGLHVASLADDKMVRFWRIDEDYPVQVAPLSNGLCCAFSTDGSVLAAGTHDGSVYFWATPRQVPSLQHLCRMSIRRVMPTQEVQELPIPSKLLEFLSYRI", "notes": "Plasmid obtained from Dr. Cheol Yong Choi; also called Myc-WSB1; WSB1-Myc; not shown: Myc tag"}}, "key": {"HIF-1α, endogenous": {"biological_target": "T1, HIF-1α, endogenous (UniProt Q16665 1-826)", "T1 construct": "also called HIF-1alpha; hypoxia-inducible factor 1 alpha", "T1 sequence (Q16665 whole entry)": "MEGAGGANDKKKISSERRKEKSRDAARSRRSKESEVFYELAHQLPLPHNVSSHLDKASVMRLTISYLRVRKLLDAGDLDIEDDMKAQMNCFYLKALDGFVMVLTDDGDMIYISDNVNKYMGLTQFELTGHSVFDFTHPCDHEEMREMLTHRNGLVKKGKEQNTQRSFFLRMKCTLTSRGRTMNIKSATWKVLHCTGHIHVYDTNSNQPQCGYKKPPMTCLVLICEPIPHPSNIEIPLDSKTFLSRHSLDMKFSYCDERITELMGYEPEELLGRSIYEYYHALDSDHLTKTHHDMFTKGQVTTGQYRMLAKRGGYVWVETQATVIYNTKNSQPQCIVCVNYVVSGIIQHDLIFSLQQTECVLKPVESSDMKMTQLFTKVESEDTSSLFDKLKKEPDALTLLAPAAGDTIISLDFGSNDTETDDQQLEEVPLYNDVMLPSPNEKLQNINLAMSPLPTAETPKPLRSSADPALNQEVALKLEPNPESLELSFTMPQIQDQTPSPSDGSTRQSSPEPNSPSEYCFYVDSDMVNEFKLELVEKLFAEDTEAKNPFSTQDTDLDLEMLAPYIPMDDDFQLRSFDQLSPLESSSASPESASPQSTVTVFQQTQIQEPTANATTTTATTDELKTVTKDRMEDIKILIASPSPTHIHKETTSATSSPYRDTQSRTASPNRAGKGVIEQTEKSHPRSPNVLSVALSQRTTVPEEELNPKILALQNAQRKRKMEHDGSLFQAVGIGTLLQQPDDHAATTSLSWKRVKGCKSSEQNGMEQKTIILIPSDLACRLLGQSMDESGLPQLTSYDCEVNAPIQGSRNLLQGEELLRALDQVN", "assay": "co-immunoprecipitation of endogenous proteins from HEK 293T cell extracts (FIG. 8A)", "experimental": "To study endogenous WSB1/pVHL binding, cells were treated with or without 10 μM MG 132 (Sigma) for 2 hours. Cells were lysed by sonication in NETN buffer (20 mM Tris-HCl, pH 8.0, 100 mM NaCl, 1 mM EDTA, 0.5% Nonidet P-40) containing 50 mM b-glycerophosphate, 10 mM NaF, and […] each of pepstatin A and aprotinin, freshly supplemented with protease inhibitor cocktail (Roche). Prior to immunoprecipitation, protein A-bound Agarose beads were incubated overnight with pVHL antibody (Cell Signaling, #2738), WSB1 antibody (Abcam, ab68953; Sigma, HPA003293; Proteintech, 1166-1-AP), or HIF-1α antibody (Abcam, ab51608) in PBS with 5% BSA at 4° C. ab68953 was used for most experiments (HPA003293 for IHC). Extracts were added before immunoprecipitation with protein-A agarose at 4° C. for 4 hours. After three washings in binding buffer, co-purified proteins were analyzed by Western blotting."}, "HA-tagged HIF-1α": {"biological_target": "T2, HA-tagged HIF-1α (UniProt Q16665 1-826)", "T2 construct": "Plasmid from Addgene; also called exogenous HIF-1α; not shown: HA tag", "T2 sequence (Q16665 whole entry)": "as above", "assay": "co-immunoprecipitation of exogenous proteins from HEK 293T cell extracts (FIG. 9A)"}}}
{"binder": "B1", "values": [{"measurement": "binding result", "setting": "HIF-1α, endogenous", "result": "no binding"}]}
{"binder": "B2", "values": [{"measurement": "binding result", "setting": "HA-tagged HIF-1α", "result": "no binding"}]}
